Experimental data reported in the RNAGym collection of RNA variant scans (doi:10.7554/elife.90254).

B1: OR4K15 (parent)
chain: GUUAACGGUCAUAGGCCAUGGAAACUAGGAGCACCAUUUCGCUGCCAGUGAAGAAAUGAACAAAGAAAAUCUGGGCCAGGCAGGCAUCAAAAGAAAUAGUCUUGCGCUCAACCAGAAAGUCUGUAAUCAUUUUAAGGGUA

Variants of: B1
Assay: self-cleavage, relative activity (ratio to wild type); higher = more cleavage; in vitro, sequencing; the parent is a self-cleaving ribozyme

Variant	self-cleavage
GUUAACGGUCAUAGGCCAUGGAAACUAGGAGCACCAUUUCGCUGCCAGUGAAGAAAUGAACAAAGAAACUCUGGGCCAGGCAGGCAUCAAAAGAAAUAGUCUUGCGCUCAACCGGAAAGUCUGUAAUCAUUUUAAGGGUA [A69C A114G]	0.21
GUUAACGGUCAUAGGCCAUGGAAACUAGGAGCACCAUUUCGCUGCCAGUGAAGAAAUGAACAAAGAAUAUCUGGGCCAGGCAGGCAUCAAAAGAAAUAGUCUUGCGCUCAACCAGAAAGACUGUAAUCAUUUUAAGGGUA [A68U U120A]	1.48
GUUAACGGUCAUAGGCCAUGGAAACUAGGAGCACCAUUUCGCUGCCAGUGAAGAAAUGAACAAAGAAUAUCUGGGCCAGGCAGGCAUCAAAAGAAAUAGUCUUGCGCUCAACCAGAAAGCCUGUAAUCAUUUUAAGGGUA [A68U U120C]	1.1
GUUAACGGUCAUAGGCCAUGGAAACUAGGAGCACCAUUUCGCUGCCAGUGAAGAAAUGAACAAAGAAGAUCUGGGCCAGGCAGGCAUCAAAAGAAAUAGUCUUGCGCUCAACCAGAAAGUCUGAAAUCAUUUUAAGGGUA [A68G U124A]	0.95
GUUAACGGUCAUAGGCCAUGGAAACUAGGAGCACCAUUUCGCUGCCAGUGAAGAAAUGAACAAAGAAUAUCUGGGCCAGGCAGGCAUCAAAAGAAAUAGUCUUGCGCUCAACCUGAAAGUCUGUAAUCAUUUUAAGGGUA [A68U A114U]	0.06
GUUAACGGUCAUAGGCCAUGGAAACUAGGAGCACCAUUUCGCUGCCAGUGAAGAAAUGAACAAAGAAACUCUGGGCCAGGCAGGCAUCAAAAGAAAUAGUCUUGCGCUCAACCAGAAAGUCUGUAAUCAUUCUAAGGGUA [A69C U132C]	2.58
GUUAACGGUCAUAGGCCAUGGAAACUAGGAGCACCAUUUCGCUGCCAGUGAAGAAAUGAACAAAGAAGAUCUGGGCCAGGCAGGCAUCAAAAGAAAUAGUCUUGCGCUCAACCAGAAAGUCUGUAAUCAUUUCAAGGGUA [A68G U133C]	1.87
GUUAACGGUCAUAGGCCAUGGAAACUAGGAGCACCAUUUCGCUGCCAGUGAAGAAAUGAACAAAGAAUAUCUGGGCCAGGCAGGCAUCAAAAGAAAUAGUCUUGCGCUCAACCAGAAAGUCUGUAAUCAUUUUAAGGGUA [A68U]	1.83
GUUAACGGUCAUAGGCCAUGGAAACUAGGAGCACCAUUUCGCUGCCAGUGAAGAAAUGAACAAAGAAUAUCUGGGCCAGGCAGGCAUCAAAAGAAAUAGUCUUGCGCUCAACCAGAAAGUCUGUAAUCAUUCUAAGGGUA [A68U U132C]	1.76
GUUAACGGUCAUAGGCCAUGGAAACUAGGAGCACCAUUUCGCUGCCAGUGAAGAAAUGAACAAAGAAGAUCUGGGCCAGGCAGGCAUCAAAAGAAAUAGUCUUGCGCUCAACCAGAAAGUCUGUAAUCACUUUAAGGGUA [A68G U130C]	1.13
GUUAACGGUCAUAGGCCAUGGAAACUAGGAGCACCAUUUCGCUGCCAGUGAAGAAAUGAACAAAGAAGAUCUGGGCCAGGCAGGCAUCAAAAGAAAUAGUCUUGCGCUCAACCAGAAAGUCUGUAAUCAAUUUAAGGGUA [A68G U130A]	0.91
GUUAACGGUCAUAGGCCAUGGAAACUAGGAGCACCAUUUCGCUGCCAGUGAAGAAAUGAACAAAGAAAGUCUGGGCCAGGCAGGCAUCAAUAGAAAUAGUCUUGCGCUCAACCAGAAAGUCUGUAAUCAUUUUAAGGGUA [A69G A91U]	1.63
GUUAACGGUCAUAGGCCAUGGAAACUAGGAGCACCAUUUCGCUGCCAGUGAAGAAAUGAACAAAGAAAGUCUGGGCCAGGCAGGCAUCAAGAGAAAUAGUCUUGCGCUCAACCAGAAAGUCUGUAAUCAUUUUAAGGGUA [A69G A91G]	1.21
GUUAACGGUCAUAGGCCAUGGAAACUAGGAGCACCAUUUCGCUGCCAGUGAAGAAAUGAACAAAGAAUAUCUGGGCCAGGCAGGCAUCAAAAGAAAUAGUCUUGCACUCAACCAGAAAGUCUGUAAUCAUUUUAAGGGUA [A68U G106A]	0
GUUAACGGUCAUAGGCCAUGGAAACUAGGAGCACCAUUUCGCUGCCAGUGAAGAAAUGAACAAAGAAAGUCUGGGCCAGGCAGGCAUCAGAAGAAAUAGUCUUGCGCUCAACCAGAAAGUCUGUAAUCAUUUUAAGGGUA [A69G A90G]	1.43
GUUAACGGUCAUAGGCCAUGGAAACUAGGAGCACCAUUUCGCUGCCAGUGAAGAAAUGAACAAAGAAUAUCUGGGCCAGGCAGGCAUCAGAAGAAAUAGUCUUGCGCUCAACCAGAAAGUCUGUAAUCAUUUUAAGGGUA [A68U A90G]	1.18
GUUAACGGUCAUAGGCCAUGGAAACUAGGAGCACCAUUUCGCUGCCAGUGAAGAAAUGAACAAAGAAUAUCUGGGCCAGGCAGGCAUCAAAAGAAAUAGUCUCGCGCUCAACCAGAAAGUCUGUAAUCAUUUUAAGGGUA [A68U U103C]	1.42
GUUAACGGUCAUAGGCCAUGGAAACUAGGAGCACCAUUUCGCUGCCAGUGAAGAAAUGAACAAAGAAAGUCUGGGCCAGGCAGGCGUCAAAAGAAAUAGUCUUGCGCUCAACCAGAAAGUCUGUAAUCAUUUUAAGGGUA [A69G A86G]	1.24
GUUAACGGUCAUAGGCCAUGGAAACUAGGAGCACCAUUUCGCUGCCAGUGAAGAAAUGAACAAAGAAGAUCUGGGCCAGGCAGGCAUCAAAAGAAAUAGUCUUGCGCUCAACCAGAAAGUCUGUAAACAUUUUAAGGGUA [A68G U127A]	1.01
GUUAACGGUCAUAGGCCAUGGAAACUAGGAGCACCAUUUCGCUGCCAGUGAAGAAAUGAACAAAGAAGAUCUGGGCCAGGCAGGCAUCAAAAGAAAUAGUCUUGCGCUCAACCAGAAAGUCUGUAACCAUUUUAAGGGUA [A68G U127C]	1.05
GUUAACGGUCAUAGGCCAUGGAAACUAGGAGCACCAUUUCGCUGCCAGUGAAGAAAUGAACAAAGAAGAUCUGGGCCAGGCAGGCAUCAAAAGAAAUAGUCUUGCGCUCAACCAGAAAGUCUGUAAGCAUUUUAAGGGUA [A68G U127G]	1.35

Variant	self-cleavage
GUUAACGGUCAUAGGCCAUGGAAACUAGGAGCACCAUUUCGCUGCCAGUGAAGAAAUGAACAAAGAAAGUCUGGGCCAGGCAGGCAUCAAAGGAAAUAGUCUUGCGCUCAACCAGAAAGUCUGUAAUCAUUUUAAGGGUA [A69G A92G]	0.72
GUUAACGGUCAUAGGCCAUGGAAACUAGGAGCACCAUUUCGCUGCCAGUGAAGAAAUGAACAAAGAAGAUCUGGGCCAGGCAGGCAUCAAAAGAAAUAGUCUUGCGCUCAACCAGAAAGUCUGUAAUCAUCUUAAGGGUA [A68G U131C]	0.99
GUUAACGGUCAUAGGCCAUGGAAACUAGGAGCACCAUUUCGCUGCCAGUGAAGAAAUGAACAAAGAAUAUCUGGGCCAGGCAGGCAUCAAAAGAAAUAGUCUUGCGCCCAACCAGAAAGUCUGUAAUCAUUUUAAGGGUA [A68U U108C]	0.02
GUUAACGGUCAUAGGCCAUGGAAACUAGGAGCACCAUUUCGCUGCCAGUGAAGAAAUGAACAAAGAAGAUCUGGGCCAGGCAGGCAUCAAAAGAAAUAGUCUUGCGCUCAACCAGAAAGUCUGUAAUCAUUUUAAGGGAA [A68G U139A]	2.25
GUUAACGGUCAUAGGCCAUGGAAACUAGGAGCACCAUUUCGCUGCCAGUGAAGAAAUGAACAAAGAAAGUCUGGGCCCGGCAGGCAUCAAAAGAAAUAGUCUUGCGCUCAACCAGAAAGUCUGUAAUCAUUUUAAGGGUA [A69G A78C]	0.36
GUUAACGGUCAUAGGCCAUGGAAACUAGGAGCACCAUUUCGCUGCCAGUGAAGAAAUGAACAAAGAAAGUCUGGGCCGGGCAGGCAUCAAAAGAAAUAGUCUUGCGCUCAACCAGAAAGUCUGUAAUCAUUUUAAGGGUA [A69G A78G]	0.27
GUUAACGGUCAUAGGCCAUGGAAACUAGGAGCACCAUUUCGCUGCCAGUGAAGAAAUGAACAAAGAAACUCUGGGCCAGGCAGGCAUCAAAAGAAUUAGUCUUGCGCUCAACCAGAAAGUCUGUAAUCAUUUUAAGGGUA [A69C A96U]	0.68
GUUAACGGUCAUAGGCCAUGGAAACUAGGAGCACCAUUUCGCUGCCAGUGAAGAAAUGAACAAAGAAUAUCUGGGCCAGGCAGGCAUCAAAAGAAAUAGUCUUGCGCUCAACAAGAAAGUCUGUAAUCAUUUUAAGGGUA [A68U C113A]	0.01
GUUAACGGUCAUAGGCCAUGGAAACUAGGAGCACCAUUUCGCUGCCAGUGAAGAAAUGAACAAAGAAUGUCUGGGCCAGGCAGGCAUCAAAAGAAAUAGUCUUGCGCUCAACCAGAAAGUCUGUAAUCAUUUUAAGGGUA [A68U A69G]	0.98
GUUAACGGUCAUAGGCCAUGGAAACUAGGAGCACCAUUUCGCUGCCAGUGAAGAAAUGAACAAAGAAUAUCAGGGCCAGGCAGGCAUCAAAAGAAAUAGUCUUGCGCUCAACCAGAAAGUCUGUAAUCAUUUUAAGGGUA [A68U U72A]	0.34
GUUAACGGUCAUAGGCCAUGGAAACUAGGAGCACCAUUUCGCUGCCAGUGAAGAAAUGAACAAAGAAUAUCUGGGCCAGGCAGGCAUCAAGAGAAAUAGUCUUGCGCUCAACCAGAAAGUCUGUAAUCAUUUUAAGGGUA [A68U A91G]	1.35
GUUAACGGUCAUAGGCCAUGGAAACUAGGAGCACCAUUUCGCUGCCAGUGAAGAAAUGAACAAAGAAUACCUGGGCCAGGCAGGCAUCAAAAGAAAUAGUCUUGCGCUCAACCAGAAAGUCUGUAAUCAUUUUAAGGGUA [A68U U70C]	0.43
GUUAACGGUCAUAGGCCAUGGAAACUAGGAGCACCAUUUCGCUGCCAGUGAAGAAAUGAACAAAGAAUAUCUGGCCCAGGCAGGCAUCAAAAGAAAUAGUCUUGCGCUCAACCAGAAAGUCUGUAAUCAUUUUAAGGGUA [A68U G75C]	0.22
GUUAACGGUCAUAGGCCAUGGAAACUAGGAGCACCAUUUCGCUGCCAGUGAAGAAAUGAACAAAGAAUAUCUGGGCCAGGCAGGCAUUAAAAGAAAUAGUCUUGCGCUCAACCAGAAAGUCUGUAAUCAUUUUAAGGGUA [A68U C88U]	2.47
GUUAACGGUCAUAGGCCAUGGAAACUAGGAGCACCAUUUCGCUGCCAGUGAAGAAAUGAACAAAGAAAGUCUGGGCCAGGCGGGCAUCAAAAGAAAUAGUCUUGCGCUCAACCAGAAAGUCUGUAAUCAUUUUAAGGGUA [A69G A82G]	0.48
GUUAACGGUCAUAGGCCAUGGAAACUAGGAGCACCAUUUCGCUGCCAGUGAAGAAAUGAACAAAGAAAGUCUGGGCCAGGCUGGCAUCAAAAGAAAUAGUCUUGCGCUCAACCAGAAAGUCUGUAAUCAUUUUAAGGGUA [A69G A82U]	0.18
GUUAACGGUCAUAGGCCAUGGAAACUAGGAGCACCAUUUCGCUGCCAGUGAAGAAAUGAACAAAGAAUAUCUGGGCCAGGCAGGCAUCAAAAGAAAUAGUCUUGCGCUCAACCAGAAAGUCUGUAAUCAUUUUGAGGGUA [A68U A134G]	1.78
GUUAACGGUCAUAGGCCAUGGAAACUAGGAGCACCAUUUCGCUGCCAGUGAAGAAAUGAACAAAGAAAGUCUGGGCCAGGCAGGCAUCGAAAGAAAUAGUCUUGCGCUCAACCAGAAAGUCUGUAAUCAUUUUAAGGGUA [A69G A89G]	0.86
GUUAACGGUCAUAGGCCAUGGAAACUAGGAGCACCAUUUCGCUGCCAGUGAAGAAAUGAACAAAGAAAGUCUGGGCCAGGCAGGCAUCCAAAGAAAUAGUCUUGCGCUCAACCAGAAAGUCUGUAAUCAUUUUAAGGGUA [A69G A89C]	1.65
GUUAACGGUCAUAGGCCAUGGAAACUAGGAGCACCAUUUCGCUGCCAGUGAAGAAAUGAACAAAGAAACUCUGGGCCAGGCAGGCAUCAAAAGAAAUAGUCUUGCGCUCAACCAGAUAGUCUGUAAUCAUUUUAAGGGUA [A69C A117U]	0.21
